From the RNAGym collection of RNA variant scans (doi:10.1073/pnas.2313332121)
Variants at the floor of the assay were thinned out.

B1: TPR 5TU (parent)
chain: GGAUCUUCUCGAUCUAACAAAAAAGACAAAUCUGCCACAAAGCUUGAGAGCAUCUUCGGAUGCAGAGGCGGCAGCCUUCGGUGGCGCGAUAGCGCCAACGUUCUCAACUAUGACACGCAAAACGCGUGCUCCGUUGAAUGGAGUUUAUCAUG

Variants of: B1
Test: polymerase ribozyme fitness, log enrichment relative to wild type (log ratio); higher = more active; in vitro selection for triplet polymerase activity
Outline: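 To select mutant libraries of each subunit of a heterodimeric triplet polymerase ribozyme, built by PCR and transcribed, each was annealed with a biotinylated primer, partner subunit and triplets, then incubated frozen at −7 °C. Extended constructs were gel-excised, captured on streptavidin beads and amplified by RT-PCR, in one round carried out in triplicate. Illumina sequencing of input and output libraries kept genotypes with ≥10 input reads and ≥1 read per output. Fitness is the base-2 logarithm of genotype enrichment relative to wild-type enrichment, from inverse-variance-weighted replicate averages.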

Variant | polymerase ribozyme fitness (log ratio)
GGAUCUUCUCGAUCUAACAAAAAAGACAAAUCUGCCACAAAGCUUGAGAGCAUCUUCGGAUGCAGAGGCGCCAGCCUUCGGUGGCGCGAUAGCGACAACGUUCUCAACUAUGACACGCAAAACGCGUGCUCCGUUGAAUGGAGUUUAUCAUG [G71C C95A] | ≤ -4.2
GGAUCUUCUCGAUCUAACAAAAAAGACAAAUCUGCCACAAAGCUUGAGAGCAUCUUCGGAUGCAGAGGCGUCAGCCUUCGGUGGCGCGAUAUCGCCAACGUUCUCAACUAUGACACGCAAAACGCGUGCUCCGUUAAAUGGAGUUUAUCAUG [G71U G92U G136A] | -2.26
GGAUCUUCUCGAUCUAACAAAAAAGACAAAUCUGCCACAAAGCUUGAGAGCAUCUUCGGAUGCAGAGGCGGAAGCCUUCGGUGGAGCGAUAGCGCCAACGUUCUCAACUAUGACACGCAAAACGCGUGCUCCGUUGAAUGGAGUUUAUCAUG [C72A C85A] | -3.85
GGAUCUUCUCGAUCUAACAAAAAAGACAAAUCUGCCACAAAGCUUGAGAGCAUCUUCGGAUGCAGAGGCGCCAGCCUUCGGUUGCGCGAUAGCGCCAACGUUCUCAACUAUGACACGCAAAACGCGUGCUCCGUUGAAUGAAGUUUCUAAUG [G71C G83U G141A A147C C149A] | ≤ -4.2
GGAUCUUCUCGAUCUAACAAAAAAGACAAAUCUGCCACAAAGCUUGAGAGCAUCUUCGGAUGCAGAGGCGCCAGCCUUCGGUGGCGCGAUAGUGGCAAGGUUCUCAACUAUGACCCGCAAAACGCGUGCUCCGUUGAAUGGAGUUUAUCAUG [G71C C93U C95G C99G A115C] | -3.95
GGAUCUUCUCGAUCUAACAAAAAAGACAAAUCUGCCACAAAGCUUGAGAGCAUCUUCGGAUGCAGAGGCGGAAGCCUUCGGUGGCGCGAUAGCGCCAACGUUCUCAACUAUGAAACGCAAAACGCGUGCUCCGUUGAAUGGAGUUUAUCAUG [C72A C114A] | ≤ -4.2
GGAUCUUCUCGAUCUAACAAAAAAGACAAAUCUGCCACAAAGCUUGAGAGCAUCUUCGGAUGCAGAGGCGUAAGCCUUCGGUGGCGCGAUGGCGCCAACGUUCUCAACUAUGACAAGCAAAACGCGUGCUCCGUUGAUUGGAGUUUAUCAUG [G71U C72A A91G C116A A138U] | ≤ -4.2
GGAUCUUCUCGAUCUAACAAAAAAGACAAAUCUGCCACAAAGCUUGAGAGCAUCUUCGGAUGCAGAGGCGCCAGCGUUCGGUGGCGCGAUAGCGCCAACGUUCUCAACUAUGUCACGCAAAACACGUGCUCCGUUGAAUGGAGUUUAUCAUG [G71C C76G A113U G124A] | ≤ -4.2
GGAUCUUCUCGAUCUAACAAAAAAGACAAAUCUGCCACAAAGCUUGAGAGCAUCUUCGGAUGCAGAGGCGUCAGCCUUCGGUGGCGCGAUAGCGCCAACGUUCUCAACUAUGACACGCAGAACGCGUGCUCCGUUGAAUGGAGUUCAUCAUG [G71U A120G U146C] | -2.36
GGAUCUUCUCGAUCUAACAAAAAAGACAAAUCUGCCACAAAGCUUGAGAGCAUCUUCGGAUGCAGAGGCGUCAGCCUUCGGUGGCGCGAUAGCGCCAACGUUCUCAACUAUGACACGCAAAACGCGUGCUCCGUUGAAUGUAGUUUAUCAUG [G71U G141U] | -3.55
GGAUCUUCUCGAUCUAACAAAAAAGACAAAUCUGCCACAAAGCUUGAGAGCAUCUUCGGAUGCAGAGGCGUCAGCCUUCGGUGGCUCGAUAGCGCCAACGUUCUCAACUAUGACACGCAAAACGAGUGCUCCGUUGAGUGGAGUUUAUCAUG [G71U G86U C125A A138G] | -3.99
GGAUCUUCUCGAUCUAACAAAAAAGACAAAUCUGCCACAAAGCUUGAGAGCAUCUUCGGAUGCAGAGGCGCCAGCCUUCGGUGGCGCGAUAGCGCCAACGUUCUCAACUAUGACACGCGAAACGCGUGCUCCGUUGAAUGGAGUUUAUCAUG [G71C A119G] | -3.01
GGAUCUUCUCGAUCUAACAAAAAAGACAAAUCUGCCACAAAGCUUGAGAGCAUCUUCGGAUGCAGAGGCGUCAGCCUUCGGUGGCGCGAUAGCGCCAACGUUCUCAACUAUGACACGCAAAACGCGUGCUCCGUUGAAUGGAGGUUAUCAUG [G71U U144G] | -1.84
GGAUCUUCUCGAUCUAACAAAAAAGACAAAUCUGCCACAAAGCUUGAGAGCAUCUUCGGAUGCAGAGGCGUCACCCUUCGGUGGCGCGAUAGCGCCAACGUUCUCAACUAUGACACGCACAACGCGUGCUCCGUUGAAUGGAGUUUAUCAUG [G71U G74C A120C] | ≤ -4.2
GGAUCUUCUCGAUCUAACAAAAAAGACAAAUCUGCCACAAAGCUUGAGAGCAUCUUCGGAUGCAGAGGCGCCAGCCUUCGGUGGCGCGAUAUCGCCAACGUUCUCAACUAUGACACGCAAAACGCGUGCUCCGUUGAAUGGAGUUUAUCAUG [G71C G92U] | -3.46
GGAUCUUCUCGAUCUAACAAAAAAGACAAAUCUGCCACAAAGCUUGAGAGCAUCUUCGGAUGCAGAGGCGCCAGCCUUCGGUGGCGCGAUAACGCCAACGUUCUCAACUAUGACACGCAAAACGCGUGCUCCGUUGAAUGGAGUUUAUCAUG [G71C G92A] | ≤ -4.2
GGAUCUUCUCGAUCUAACAAAAAAGACAAAUCUGCCACAAAGCUUGAGAGCAUCUUCGGAUGCAGAGGCGGAAGCCUUCGGUGGCGCGAUAGCGCCAACGUUCUCAACUAUGACACGCAAAACGCGUGCUCCGUUGAAUGGAGUUUAUCAUG [C72A] | -3.87
GGAUCUUCUCGAUCUAACAAAAAAGACAAAUCUGCCACAAAGCUUGAGAGCAUCUUCGGAUGCAGAGGCGCCAGCCUUCGGUGGUGCGAUAGCGCCAACGUUCUCAACUAUGACACGCAAAACGCGUGCUCCGUUGAAUGGAGUUUAUCAUG [G71C C85U] | -3.27
GGAUCUUCUCGAUCUAACAAAAAAGACAAAUCUGCCACAAAGCUUGAGAGCAUCUUCGGAUGCAGAGGCGUCAGCCUUCGGUGGCGCGAUAGUGCCAACGUUCGCAACUAUGACACGCAAAACGCGUGCUCCGUUGAAUGGAGUUUAUAAUG [G71U C93U U104G C149A] | ≤ -4.2

Variant | polymerase ribozyme fitness (log ratio)
GGAUCUUCUCGAUCUAACAAAAAAGACAAAUCUGCCACAAAGCUUGAGAGCAUCUUCGGAUGCAGAGGCGGAAGCCUUCGGUGGCGCGAUUGCGCCAACGUUCUCAACUAUGACACGCAAAACGCGUGCUCCGUUGAAUGGAGUAUAUCAUG [C72A A91U U145A] | ≤ -4.2
GGAUCUUCUCGAUCUAACAAAAAAGACAAAUCUGCCACAAAGCUUGAGAGCAUCUUCGGAUGCAGAGGCGUCAGCCUUCGGUGGCGCGAUAGCGCCAACGUUCUCAACUAUGACACGCAAAACGCGUGCUCCGUUGAAUGGAGUUUCUCAUG [G71U A147C] | -3.65
GGAUCUUCUCGAUCUAACAAAAAAGACAAAUCUGCCACAAAGCUUGAGAGCAUCUUCGGAUGCAGAGGCGCCAGCCUUCGGUGACGCGAUAGCGCCAACGUUCUCAACUAUGACACGCUAAACGCGUGCUCCGUUGAAUGGAGUUUAUCAUG [G71C G84A A119U] | -2.68
GGAUCUUCUCGAUCUAACAAAAAAGACAAAUCUGCCACAAAGCUUGAGAGCAUCUUCGGAUGCAGAGGCGGAAGCCUUCGUUCGCGCGAUAGUGCCAACGUUCUCAACUAUGACACGCAAAACGCGUGCUCCGUUGAAUGGAGUUUAUCAUG [C72A G81U G83C C93U] | ≤ -4.2
GGAUCUUCUCGAUCUAACAAAAAAGACAAAUCUGCCACAAAGCUUGAGAGCAUCUUCGGAUGCAGAGGCGUCAGCCUUCGGUGACGCGAUAGCGCCAACGUUCUCAACUAUGACACGCAAAACGCGUGCUCCGUUGAAUGGAGUUUAUCAUG [G71U G84A] | -2.59
GGAUCUUCUCGAUCUAACAAAAAAGACAAAUCUGCCACAAAGCUUGAGAGCAUCUUCGGAUGCAGAGGCGUCAGCCUUCGGUGGCGCGAUAGCCCCAACGUUCUCAACUGUGACACGCAAAACGCGUGCUCCGUUGAAUGGAGUUUAUCAUG [G71U G94C A110G] | ≤ -4.2
GGAUCUUCUCGAUCUAACAAAAAAGACAAAUCUGCCACAAAGCUUGAGAGCAUCUUCGGAUGCAGAGGCGCCAGCCUUCGGCGGCGCGAUAGCGCCAACGUUCUCAACUAUGACACGCAAAACGCGUGCUCCGUUGAAUGGAGUUUAUCAUG [G71C U82C] | -2.48
GGAUCUUCUCGAUCUAACAAAAAAGACAAAUCUGCCACAAAGCUUGAGAGCAUCUUCGGAUGCAGAGGCGUCAGCCUUCGGUGGCGCGUUAGCGCCAACGUUCUCAACUAUGACACGCAAAACGCGUGCUCCGUUGAAUGGAGUUUAUCAUG [G71U A89U] | -2.83
GGAUCUUCUCGAUCUAACAAAAAAGACAAAUCUGCCACAAAGCUUGAGAGCAUCUUCGGAUGCAGAGGCGUCAGCCUUCGGUCGCGCGAUAGCGCCAACGUUCUCAACUAUGACACGCAAAACGCGUGCUCCGUUGAAUGGAGUUUAUCAUG [G71U G83C] | -2.74
GGAUCUUCUCGAUCUAACAAAAAAGACAAAUCUGCCACAAAGCUUGAGAGCAUCUUCGGAUGCAGAGGCGUCAGCCUUCGGUUGCGCGAUAGCGCCAACGUUCUCAACUAUGACACGCAAAACGCGUGCUCCGUUGAAUGGAGUUUAUCAUG [G71U G83U] | -3.48
GGAUCUUCUCGAUCUAACAAAAAAGACAAAUCUGCCACAAAGCUUGAGAGCAUCUUCGGAUGCAGAGGCGUCAGCCUUCGGUGGCGCGAUAGCGCCAACGUUCUCAAUUAUGACACGCAAAACGCGUGCUCCGUUGAAUGGAGUUUAUCAUG [G71U C108U] | ≤ -4.2
GGAUCUUCUCGAUCUAACAAAAAAGACAAAUCUGCCACAAAGCUUGAGAGCAUCUUCGGAUGCAGAGGCGUCAGCCUUCGGUGGCGCGUUAGCGCCAACGUUCUCAACUAUGACACGCAAAACGCGUGCUCCGUAGAAUGGAGUUUAUCAUG [G71U A89U U135A] | ≤ -4.2
GGAUCUUCUCGAUCUAACAAAAAAGACAAAUCUGCCACAAAGCUUGAGAGCAUCUUCGGAUGCAGAGGCGCCAGCCUUCGGUGGCGCGAUAGCGUCAACGUUCUCAACUAUGACACGCAAAACGCGUGCUCUGUUGAAUGAAGUUGAUCAUG [G71C C95U C132U G141A U146G] | ≤ -4.2
GGAUCUUCUCGAUCUAACAAAAAAGACAAAUCUGCCACAAAGCUUGAGAGCAUCUUCGGAUGCAGAGGCGUCAGCCUUCGGUGGCGCGAUAGCGCCAACGUUCUCAACUAUGACACGCAAAACGCGUGCUCCGUUGAAUGGCGUUUAUCAUG [G71U A142C] | ≤ -4.2
GGAUCUUCUCGAUCUAACAAAAAAGACAAAUCUGCCACAAAGCUUGAGAGCAUCUUCGGAUGCAGAGGCGUCAGCCUUCGGUGGCGCGAUAGCGCCAACGUUCUCAACUAUGACAUGCAAAACGCGUGCUCCGUUGAAUGGAGUUUAUCAUG [G71U C116U] | -2.4
GGAUCUUCUCGAUCUAACAAAAAAGACAAAUCUGCCACAAAGCUUGAGAGCAUCUUCGGAUGCAGAGGCGCCAGCCUUCGGUGGCGCGAUUGUGCCAACGUUCGCAACUAUGACACGCAAAACGCGUGCUCCGUUGAAUGGAGUUUAUCAUG [G71C A91U C93U U104G] | ≤ -4.2
GGAUCUUCUCGAUCUAACAAAAAAGACAAAUCUGCCACAAAGCUUGAGAGCAUCUUCGGAUGCAGAGGCGUCAGCCUUCGGUGGCGCGAUUGCGCCAACGUUCUCAACUAUGACACGCAAAGCGCGUGCUCCGUUGAAUGGAUUCUAUCAUG [G71U A91U A122G G143U U145C] | ≤ -4.2
GGAUCUUCUCGAUCUAACAAAAAAGACAAAUCUGCCACAAAGCUUGAGAGCAUCUUCGGAUGCAGAGGCGCCAGCCUUCGGUGGCGCGAUUGCGCCAACGUUCUCAACUAUGACACGCAAAACGCGUGCUCCGUUCAAUGGAGUUUAUCAUG [G71C A91U G136C] | ≤ -4.2
GGAUCUUCUCGAUCUAACAAAAAAGACAAAUCUGCCACAAAGCUUGAGAGCAUCUUCGGAUGCAGAGGCGUCAGCCUUCGGUGUCGCGAUAGCGCCAACGCUCUCAACUAUGACACUCAAAAUGCGUGCUCCGUUGAAUGGAGUUUAUCAUG [G71U G84U U101C G117U C123U] | -4.15
